Assay results published in patent US20240279318A1 (NANJING LEGEND BIOTECH, published 2024).
Where two headings read alike, the source gives them in different places.

Columns and labels:
[1] = molecular target: T1, AFP158/HLA-A*02:01 complex (human); experiment: SPR, crude scFv captured, pMHC analyte
T1 construct: flowed as analyte in SPR
Protocol: (§1) The experiment was carried out as follows. The crude scFv protein were captured onto the sensorchip. Different concentrations (320, 160, 40 nM) of AFP158/HLA-A*02:01 complex flowed over the sensorchip surface, and were allowed to bind the antibody fragment for 100 s followed by injection of the running buffer to allow dissociation of the complex. On-rate (kd) and off-rate (kd) were calculated based on association and dissociation curve, and were used to estimate the equilibrium dissociation constant (KD).
(§2) The crude scFv muteins were then subjected to SPR affinity measurement by the method mentioned above.

[2] = molecular target: T1, AFP158/HLA-A*02:01 complex; experiment: SPR, fold vs AS170036 VL1VH1;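 note: crude scFv muteins immobilised on a sensor chip, peptide–MHC complex passed over at several concentrations, binding then buffer-driven dissociation, KD estimated from on- and off-rates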
[3] = molecular target: T1, AFP158/HLA-A*02:01 complex; experiment: SPR, crude scFv captured, pMHC analyte; remark: listed apart in the source
Protocol: as §1, §2

[4] = molecular target: T1, AFP158/HLA-A*02:01 complex; experiment: SPR, fold vs AS170036 VL1VH1; remark: listed apart in the source;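 note: crude scFv muteins immobilised on a sensor chip, peptide–MHC complex passed over at several concentrations, binding then buffer-driven dissociation, KD estimated from on- and off-rates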
Protocol: as §1, §2

Row | Binder | Kd [1] [nM] | koff [1] [s⁻¹] | kon [1] [M⁻¹ s⁻¹] | Affinity increase [2] [fold] | Kd [3] [nM] | koff [3] [s⁻¹] | kon [3] [M⁻¹ s⁻¹] | Affinity increase [4] [fold]
1 | AS170036 VL1VH1-56N98F (scFv, also called 04-AS170036 VL1VH1-56N98F) scFv: QSALTQPRSVSGSPGQSVTISCAGTSSDVGSENYVSWYQQHPGKAPKLMIYQVNKRASGVPDRFSGSKSGNTASLTISGLQAEDEADYYCASYRSSDFNIVFGGGTKLTVLGGGGSGGGGSGGGGSEVQLVESGGGLVQPGGSLRLSCAASGFTFSSYAMSWVRQAPGKGLEWVSTINSGTNSPYYADSVKGRFTISRDNSKNTLYLQMNSLRAEDTAVYYCAKNFFDGSWFLGPPAMDYWGQGTLVTVSSHHHHHH | 27 | 0.0097 | 360000 | 8.2 |  |  |  | 
2 | AS170036 VL1VH1-57M98F108D (scFv, also called 77-AS170036 VL1VH1-57M98F108D) scFv: QSALTQPRSVSGSPGQSVTISCAGTSSDVGSENYVSWYQQHPGKAPKLMIYQVNKRASGVPDRFSGSKSGNTASLTISGLQAEDEADYYCASYRSSDFNIVFGGGTKLTVLGGGGSGGGGSGGGGSEVQLVESGGGLVQPGGSLRLSCAASGFTFSSYAMSWVRQAPGKGLEWVSTINSGTGMPYYADSVKGRFTISRDNSKNTLYLQMNSLRAEDTAVYYCAKNFFDGSWFLDPPAMDYWGQGTLVTVSSHHHHHH |  |  |  |  | 6.2 | 0.0018 | 280000 | 36.2
3 | AS170036 VL1VH1-56N108D (scFv, also called 20-AS170036 VL1VH1-56N108D) scFv: QSALTQPRSVSGSPGQSVTISCAGTSSDVGSENYVSWYQQHPGKAPKLMIYQVNKRASGVPDRFSGSKSGNTASLTISGLQAEDEADYYCASYRSSDHNIVFGGGTKLTVLGGGGSGGGGSGGGGSEVQLVESGGGLVQPGGSLRLSCAASGFTFSSYAMSWVRQAPGKGLEWVSTINSGTNSPYYADSVKGRFTISRDNSKNTLYLQMNSLRAEDTAVYYCAKNFFDGSWFLDPPAMDYWGQGTLVTVSSHHHHHH | 17 | 0.0046 | 270000 | 13.2 |  |  |  | 
4 | AS170036 VL1VH1-56N108A (scFv, also called 19-AS170036 VL1VH1-56N108A) scFv: QSALTQPRSVSGSPGQSVTISCAGTSSDVGSENYVSWYQQHPGKAPKLMIYQVNKRASGVPDRFSGSKSGNTASLTISGLQAEDEADYYCASYRSSDHNIVFGGGTKLTVLGGGGSGGGGSGGGGSEVQLVESGGGLVQPGGSLRLSCAASGFTFSSYAMSWVRQAPGKGLEWVSTINSGTNSPYYADSVKGRFTISRDNSKNTLYLQMNSLRAEDTAVYYCAKNFFDGSWFLAPPAMDYWGQGTLVTVSSHHHHHH | 15 | 0.0036 | 240000 | 14.9 |  |  |  | 
5 | AS170036 VL1VH1-56N98I (scFv, also called 05-AS170036 VL1VH1-56N98I) scFv: QSALTQPRSVSGSPGQSVTISCAGTSSDVGSENYVSWYQQHPGKAPKLMIYQVNKRASGVPDRFSGSKSGNTASLTISGLQAEDEADYYCASYRSSDINIVFGGGTKLTVLGGGGSGGGGSGGGGSEVQLVESGGGLVQPGGSLRLSCAASGFTFSSYAMSWVRQAPGKGLEWVSTINSGTNSPYYADSVKGRFTISRDNSKNTLYLQMNSLRAEDTAVYYCAKNFFDGSWFLGPPAMDYWGQGTLVTVSSHHHHHH | 21 | 0.0056 | 270000 | 10.7 |  |  |  | 
6 | AS170036 VL1VH1-56N98Q (scFv, also called 06-AS170036 VL1VH1-56N98Q) scFv: QSALTQPRSVSGSPGQSVTISCAGTSSDVGSENYVSWYQQHPGKAPKLMIYQVNKRASGVPDRFSGSKSGNTASLTISGLQAEDEADYYCASYRSSDQNIVFGGGTKLTVLGGGGSGGGGSGGGGSEVQLVESGGGLVQPGGSLRLSCAASGFTFSSYAMSWVRQAPGKGLEWVSTINSGTNSPYYADSVKGRFTISRDNSKNTLYLQMNSLRAEDTAVYYCAKNFFDGSWFLGPPAMDYWGQGTLVTVSSHHHHHH | 23 | 0.0058 | 250000 | 9.7 |  |  |  | 

Now from value to binder:

Row | Kd [1] [nM] | koff [1] [s⁻¹] | kon [1] [M⁻¹ s⁻¹] | Affinity increase [2] [fold] | Kd [3] [nM] | koff [3] [s⁻¹] | kon [3] [M⁻¹ s⁻¹] | Affinity increase [4] [fold] | Binder
7 |  |  |  |  | 11 | 0.0029 | 260000 | 20.5 | AS170036 VL1VH1-57M98I108D (scFv, also called 80-AS170036 VL1VH1-57M98I108D) scFv: QSALTQPRSVSGSPGQSVTISCAGTSSDVGSENYVSWYQQHPGKAPKLMIYQVNKRASGVPDRFSGSKSGNTASLTISGLQAEDEADYYCASYRSSDINIVFGGGTKLTVLGGGGSGGGGSGGGGSEVQLVESGGGLVQPGGSLRLSCAASGFTFSSYAMSWVRQAPGKGLEWVSTINSGTGMPYYADSVKGRFTISRDNSKNTLYLQMNSLRAEDTAVYYCAKNFFDGSWFLDPPAMDYWGQGTLVTVSSHHHHHH
8 |  |  |  |  | 7.6 | 0.0018 | 240000 | 29.6 | AS170036 VL1VH1-57M98Q108D (scFv, also called 83-AS170036 VL1VH1-57M98Q108D) scFv: QSALTQPRSVSGSPGQSVTISCAGTSSDVGSENYVSWYQQHPGKAPKLMIYQVNKRASGVPDRFSGSKSGNTASLTISGLQAEDEADYYCASYRSSDQNIVFGGGTKLTVLGGGGSGGGGSGGGGSEVQLVESGGGLVQPGGSLRLSCAASGFTFSSYAMSWVRQAPGKGLEWVSTINSGTGMPYYADSVKGRFTISRDNSKNTLYLQMNSLRAEDTAVYYCAKNFFDGSWFLDPPAMDYWGQGTLVTVSSHHHHHH
9 |  |  |  |  | 8.1 | 0.0018 | 220000 | 28 | AS170036 VL1VH1-57M98I108A (scFv, also called 79-AS170036 VL1VH1-57M98I108A) scFv: QSALTQPRSVSGSPGQSVTISCAGTSSDVGSENYVSWYQQHPGKAPKLMIYQVNKRASGVPDRFSGSKSGNTASLTISGLQAEDEADYYCASYRSSDINIVFGGGTKLTVLGGGGSGGGGSGGGGSEVQLVESGGGLVQPGGSLRLSCAASGFTFSSYAMSWVRQAPGKGLEWVSTINSGTGMPYYADSVKGRFTISRDNSKNTLYLQMNSLRAEDTAVYYCAKNFFDGSWFLAPPAMDYWGQGTLVTVSSHHHHHH
10 |  |  |  |  | 13 | 0.0024 | 190000 | 18 | AS170036 VL1VH1-57M98F108S (scFv, also called 78-AS170036 VL1VH1-57M98F108S) scFv: QSALTQPRSVSGSPGQSVTISCAGTSSDVGSENYVSWYQQHPGKAPKLMIYQVNKRASGVPDRFSGSKSGNTASLTISGLQAEDEADYYCASYRSSDFNIVFGGGTKLTVLGGGGSGGGGSGGGGSEVQLVESGGGLVQPGGSLRLSCAASGFTFSSYAMSWVRQAPGKGLEWVSTINSGTGMPYYADSVKGRFTISRDNSKNTLYLQMNSLRAEDTAVYYCAKNFFDGSWFLSPPAMDYWGQGTLVTVSSHHHHHH
11 |  |  |  |  | 14 | 0.0021 | 160000 | 16.7 | AS170036 VL1VH1-57M98Q108S (scFv, also called 84-AS170036 VL1VH1-57M98Q108S) scFv: QSALTQPRSVSGSPGQSVTISCAGTSSDVGSENYVSWYQQHPGKAPKLMIYQVNKRASGVPDRFSGSKSGNTASLTISGLQAEDEADYYCASYRSSDQNIVFGGGTKLTVLGGGGSGGGGSGGGGSEVQLVESGGGLVQPGGSLRLSCAASGFTFSSYAMSWVRQAPGKGLEWVSTINSGTGMPYYADSVKGRFTISRDNSKNTLYLQMNSLRAEDTAVYYCAKNFFDGSWFLSPPAMDYWGQGTLVTVSSHHHHHH
12 |  |  |  |  | 5.2 | 0.0012 | 220000 | 43 | AS170036 VL1VH1-57M98Q108A (scFv, also called 82-AS170036 VL1VH1-57M98Q108A) scFv: QSALTQPRSVSGSPGQSVTISCAGTSSDVGSENYVSWYQQHPGKAPKLMIYQVNKRASGVPDRFSGSKSGNTASLTISGLQAEDEADYYCASYRSSDQNIVFGGGTKLTVLGGGGSGGGGSGGGGSEVQLVESGGGLVQPGGSLRLSCAASGFTFSSYAMSWVRQAPGKGLEWVSTINSGTGMPYYADSVKGRFTISRDNSKNTLYLQMNSLRAEDTAVYYCAKNFFDGSWFLAPPAMDYWGQGTLVTVSSHHHHHH
